Like-named read-outs stand apart in the source and are kept apart here.
What was measured:
[1] = target: T1, Prostaglandin D2 receptor 2 (CRTH2R) (UniProt Q9Y5Y4 1-395); assay: FACS binding; CHO CRTH2R-positive cells
T1 chain: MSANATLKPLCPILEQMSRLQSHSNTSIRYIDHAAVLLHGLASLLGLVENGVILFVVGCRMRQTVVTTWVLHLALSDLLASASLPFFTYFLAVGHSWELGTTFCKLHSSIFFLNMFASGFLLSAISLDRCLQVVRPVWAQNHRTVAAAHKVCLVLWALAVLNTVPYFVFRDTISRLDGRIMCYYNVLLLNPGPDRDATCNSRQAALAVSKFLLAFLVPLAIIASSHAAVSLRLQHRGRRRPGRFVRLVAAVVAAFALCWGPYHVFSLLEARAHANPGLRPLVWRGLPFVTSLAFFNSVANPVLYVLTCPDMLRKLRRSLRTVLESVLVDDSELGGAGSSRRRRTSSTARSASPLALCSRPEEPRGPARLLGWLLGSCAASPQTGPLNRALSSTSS

[2] = target: T2, Prostaglandin D2 receptor 2 (CRTH2R) (human, UniProt Q9Y5Y4 1-395); assay: cell-based or functional assay
T2 sequence: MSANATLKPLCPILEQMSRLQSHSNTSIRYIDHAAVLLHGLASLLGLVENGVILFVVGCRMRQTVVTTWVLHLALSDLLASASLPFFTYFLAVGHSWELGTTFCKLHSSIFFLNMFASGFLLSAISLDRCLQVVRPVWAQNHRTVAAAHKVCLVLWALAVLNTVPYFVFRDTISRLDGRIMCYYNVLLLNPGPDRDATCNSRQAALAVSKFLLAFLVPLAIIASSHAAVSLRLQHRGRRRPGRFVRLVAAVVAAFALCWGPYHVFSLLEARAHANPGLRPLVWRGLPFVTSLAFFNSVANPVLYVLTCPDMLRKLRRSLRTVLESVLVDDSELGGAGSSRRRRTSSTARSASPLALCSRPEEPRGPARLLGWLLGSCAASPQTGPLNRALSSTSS

[3] = target: T1, Prostaglandin D2 receptor 2 (CRTH2R); assay: FACS binding; CHO CRTH2R-positive cells
[4] = target: T1, Prostaglandin D2 receptor 2 (CRTH2R); assay: FACS binding; CHO CRTH2R-positive cells
[5] = target: T1, Prostaglandin D2 receptor 2 (CRTH2R); assay: FACS binding; CHO CRTH2R-positive cells

B1: CRTH2 66 (antibody)
chain 1: QVQLVESGGGVVQPGRSLRLSCAASGFDFSGYGMHWVRQAPGKGLEWVAVISYEGSNKFYADSVKGRFTISRDNSKNTLYLQMNSLRAEDTAVYYCARDLRELECEEWTIEVHGQEFAVHQDRGGVFSRGPCVDPRGVAGSFDVWGQGTLVTVSS
chain 2: EIVMTQSPATLSVSPGERATLSCRASQGVGSNLAWYQQKPGQAPRLLIYRTSIRATGIPARFSGSGSGTEFTLTISSLQSEDFAVYYCQQYYSWPPLTFGGGTKVEIK
- EC50 [1]: 3.95 nM

B2: CRTH2-45 (antibody)
VH: QVQLVESGGGVVQPGRSLRLSCAASGFTFSHYAMHWVRQAPGKGLEWVADISHEGSNKYYADSVKGRFTISRDNSKNTLYLQMNSLRAEDTAVYYCARDGRGSLPRPKGGPTSGGGFSTNIGYGFVVQSYDSSEDSGGAFDIWGQGTLVTVSS
VL: QSVLTQPPSVSAAPGQKVTISCSGTSSNIENNYVSWYQQLPGTAPKLLIYDNVKRPSGIPDRFSGSKSGTSATLGITGLQTGDEADYYCGTWDNTVSAPWVFGGGTKLTVL
- antagonist activity in PGD2-induced cAMP assay at 33 nM IgG [2]: > 20%
- EC50 [3]: 23.2 nM

B3: CRTH2 35 (antibody, V domains shown)
VH: QVQLVQSGAEVKKPGSSVKVSCKASGGTFRSYAISWVRQAPGQGLEWMGGIIPISGTTNYAQKFQGRVTITADESTSTAYMELSSLRSEDTAVYYCARANQHFTRIFGNYQIYFGHFGYHYYGMDVWGQGTLVTVSS
VL: QSALTQPASVSGSPGQSITISCTGTSSDIGGYEFVSWYQQHPGKAPKLMIYGVSRRPSGVSNRFSGSKSGNTASLTISGLQAEDEADYYCGSYTSSSTPYVFGGGTKLTVL
- EC50 [3]: 12.6 nM

B4: CRTH2-19 (antibody, V domains shown)
VH: QVQLVQSGAEVKKPGSSVKVSCKASGGTFSSHAINWVRQAPGQGLEWMGRIIPIVGTTTYAQKFQGRVTITADESTSTAYMELSSLRSEDTAVYYCARDMYYDFDYFGLTLTGDRNDDEVVPADDAFDIWGQGTLVTVSS
VL: QSALTQPASVSGSPGQSITISCTGTSSDVGGYDYVTWYQQHPGKAPKLMIYDVDTRPSGVSNRFSGSKSGNTASLTISGLQAEDEADYYCSSYTTSTSYVFGGGTKLTVL
- antagonist activity in PGD2-induced cAMP assay at 33 nM IgG [2]: > 20%
- EC50 [4]: 16.7 nM

B5: CRTH2-60 (antibody, V domains shown)
VH: QVQLVQSGAEVKKPGSSVKVSCKASGGTFKNYAINWVRQAPGQGLEWMGAIIPKFGAANYAQKFQGRVTITADESTSTAYMELSSLRSEDTAVYYCARANQHFSAVRGLAFGYGYRIGGYHYYGMDVWGQGTLVTVSS
VL: QSVLTQPPSVSAAPGQKVTISCSGSTSNIGINYVSWYQQLPGTAPKLLIYENRKRPSGIPDRFSGSKSGTSATLGITGLQTGDEADYYCATWDASLKNLVFGGGTKLTVL
- antagonist activity in PGD2-induced cAMP assay at 33 nM IgG [2]: > 20%

B6: CRTH2-32 (antibody, V domains shown)
VH: QVQLVESGGGVVQPGRSLRLSCAASGFTFSKHGMHWVRQAPGKGLEWVAFISYEGSEKYYADSVKGRFTISRDNSKNTLYLQMNSLRAEDTAVYYCARDMYYDFHYSTVGATYYYYLGSETEVVPADDAFDIWGQGTLVTVSS
VL: QSALTQPASVSGSPGQSITISCTGTSSGVGGYDYVSWYQQHPGKAPKLMIYDDNNRPSGVSNRFSGSKSGNTASLTISGLQAEDEADYYCSSYTGSSTLYVFGGGTKLTVL
- IC50 fold difference of the PGD2 dose response curve (cAMP assay, 100 nM IgG) [2]: > 2 fold
- EC50 [3]: 12.4 nM

B7: CRTH2-42 (antibody)
VH: QVQLVESGGGVVQPGRSLRLSCAASGFAFSSYAMHWVRQAPGKGLEWVAVISYEGSNEYYADSVKGRFTISRDNSKNTLYLQMNSLRAEDTAVYYCARDLRELECEEWTVLQYGKFHMRWAESGEGSLSRGPCVDPRGVAGSFDVWGQGTLVTVSS
VL: QSALTQPASVSGSPGQSITISCTGTSSDVGGYRYVSWYQQHPGKAPKLMIYNVNYRPSGVSNRFSGSKSGNTASLTISGLQAEDEADYYCSSYRSSSTLGVFGGGTKLTVL
- IC50 fold difference of the PGD2 dose response curve (cAMP assay, 100 nM IgG) [2]: > 2 fold
- antagonist activity in PGD2-induced cAMP assay at 33 nM IgG [2]: > 20%

B8: CRTH2-70 (antibody, V domains shown)
VH: QVQLVQSGAEVKKPGSSVKVSCKASGGTFSNHAIIWVRQAPGQGLEWMGGIIPIFGTPSYAQKFQGRVTITADESTSTAYMELSSLRSEDTAVYYCARDMYYDFDVISAGVVGAGNPEVVPADDAFDIWGQGTLVTVSS
VL: QSVLTQPPSVSAAPGQKVTISCSGSTSNIGNNFVSWYQQLPGTAPKLLIYDNEKRPSGIPDRFSGSKSGTSATLGITGLQTGDEADYYCGTWDERQTDESYVFGGGTKLTVL
- antagonist activity in PGD2-induced cAMP assay at 33 nM IgG [2]: > 20%

B9: CRTH2-24 (antibody, V domains shown)
VH: QVQLVQSGAEVKKPGSSVKVSCKASGGSFSNYGISWVRQAPGQGLEWMGGIIPLIGTANYAQKFQGRVTITADESTSTAYMELSSLRSEDTAVYYCARDMYYDFTLGPQSIGPLGEVVPADDAFDIWGQGTLVTVSS
VL: QSVLTQPPSVSAAPGQKVTISCSGSSSNIGNNFVSWYQQLPGTAPKLLIYDNIQRPSGIPDRFSGSKSGTSATLGITGLQTGDEADYYCGTWDTSLSAVVFGGGTKLTVLR
- antagonist activity in PGD2-induced cAMP assay at 33 nM IgG [2]: > 20%

B10: CRTH2 57 (antibody, V domains shown)
VH: QVQLVQSGAEVKKPGSSVKVSCKASGGTFSSYAMSWVRQAPGQGLEWMGGIIPLFGTTDYAQKFQGRVTITADESTSTAYMELSSLRSEDTAVYYCARANQHFVKIQGAPVSTPVPGFGTTGYHYYGMDVWGQGTLVTVSS
VL: QSVLTQPPSVSAAPGQKVTISCSGSSSNIEDNYVSWYQQLPGTAPKLLIYDNFKRPSGIPDRFSGSKSGTSATLGITGLQTGDEADYYCGTWDTSLSAALFGGGTKLTVL
- EC50 [1]: 158 nM

B11: CRTH2-8 (antibody, V domains shown)
VH: QVQLVQSGAEVKKPGSSVKVSCKASGGTFTDYAISWVRQAPGQGLEWMGGIIPFFGSPNYAQKFQGRVTITADESTSTAYMELSSLRSEDTAVYYCARDMYYDFAAGLEGTITEVFDEEGHQGGTEVVPADDAFDIWGQGTLVTVSS
VL: QSVLTQPPSVSAAPGQKVTISCSGSSSNIGKNYVSWYQQLPGTAPKLLIYDNNQRPSGIPDRFSGSKSGTSATLGITGLQTGDEADYYCGTWDTSLTSVVFGGGTKLTVL
- antagonist activity in PGD2-induced cAMP assay at 33 nM IgG [2]: > 20%

B12: CRTH2-15 (antibody, V domains shown)
VH: QVQLVQSGAEVKKPGSSVKVSCKASGGTFSTYAIDWVRQAPGQGLEWMGGIIPLFGSPNYAQKFQGRVTITADESTSTAYMELSSLRSEDTAVYYCARANQHFFLYEGTSSSWLHVGHARYGYHYYGMDVWGQGTLVTVSS
VL: QSVLTQPPSVSAAPGQKVTISCSGSGSNIGSNYVSWYQQLPGTAPKLLIYDNIRRPSGIPDRFSGSKSGTSATLGITGLQTGDEADYYCAAWDTRLSAGVFGGGTKLTVL
- EC50 [5]: 73.8 nM
- antagonist activity in PGD2-induced cAMP assay at 33 nM IgG [2]: > 20%

B13: CRTH2-27 (antibody, V domains shown)
VH: QVQLVESGGGVVQPGRSLRLSCAASGFTFDNYGMHWVRQAPGKGLEWVAVISYEGSNKKYADSVKGRFTISRDNSKNTLYLQMNSLRAEDTAVYYCARDMYYDFGSIYGEDVVGELPEVVPADDAFDIWGQGTLVTVSS
VL: QSALTQPASVSGSPGQSITISCTGTSNDVGAYNFVSWYQQHPGKAPKLMIYDISNRPSGVSNRFSGSKSGNTASLTISGLQAEDEADYYCSSYTRSNTRVFGGGTKLTVL
- IC50 fold difference of the PGD2 dose response curve (cAMP assay, 100 nM IgG) [2]: > 2 fold

B14: CRTH2-74 (antibody)
VH: QVQLVESGGGVVQPGRSLRLSCAASGFSFSEYGIHWVRQAPGKGLEWVAVISYEGSNEYYADSVKGRFTISRDNSKNTLYLQMNSLRAEDTAVYYCARANQHFGPVAGGATPSEEPGSQLTRAELGWDAPPGQESLADELLQLGTEHGYHYYGMDVWGQGTLVTVSS
VL: QSVLTQPPSVSAAPGQKVTISCSGSTSNIGKNYVSWYQQLPGTAPKLLIYDDDERPSGIPDRFSGSMSGTSATLGITGLQTGDEADYYCEAWDADLSGAVFGGGTKLTVL
- antagonist activity in PGD2-induced cAMP assay at 33 nM IgG [2]: > 20%
- EC50 [4]: 8.61 nM

B15: CRTH2-28 (antibody, V domains shown)
VH: QVQLVQSGAEVKKPGSSVNVSCKASGGTFSDYAFSWVRQAPGQGLEWMGAIIPFFGTVNYAQKFQGRVTITADESTSTAYMELSSLRSEDTAVYYCARDMYYDFATGTGGPEDDLYPQGELNDGYRIEVVPADDAFDIWGQGTLVTVSS
VL: QSVLTQPPSVSAAPGQKVTISCSGSISNIGKNYVSWYQQLPGTAPKLLIYDDHKRPSGIPDRFSGSKSGTSATLGITGLQTGDEADYYCATWDRGLSAAVFGGGTKLTVL
- antagonist activity in PGD2-induced cAMP assay at 33 nM IgG [2]: > 20%

B16: CRTH2-9 (antibody, V domains shown)
VH: QVQLVQSGAEVKKPGSSVKVSCKASGGTFSSYAISWVRQAPGQGLEWMGGIIPIFGTANYAQKFQGRVTITADESTSTAYMELSSLRSEDTAVYYCARDMYYDFWLGDQSTGSLIGAEVVPADDAFDIWGQGTLVTVSS
VL: QSVLTQPPSVSAAPGQKVTISCSGSTSNIGNNYVSWYQQLPGTAPKLLIYENDERPSGIPDRFSGSKSGTSATLGITGLQTGDEADYYCATWDTRLSAVVFGGGTKLTVL
- IC50 fold difference of the PGD2 dose response curve (cAMP assay, 100 nM IgG) [2]: > 2 fold
- antagonist activity in PGD2-induced cAMP assay at 33 nM IgG [2]: > 20%
